Data as given in patent US20160108110A1 (Novartis, published 2016).
One block for each binder: values may come before it.

Experiments:
[1] = molecular target: T1, Mouse ANGPTL4(26-410)-FLAG-His6-Avi (mouse, UniProt Q9Z1P8 24-410, biotin on the C-terminal Avi tag in the immobilised form); experiment: SET assay (solution equilibrium titration, MSD), IgG
T1 sequence: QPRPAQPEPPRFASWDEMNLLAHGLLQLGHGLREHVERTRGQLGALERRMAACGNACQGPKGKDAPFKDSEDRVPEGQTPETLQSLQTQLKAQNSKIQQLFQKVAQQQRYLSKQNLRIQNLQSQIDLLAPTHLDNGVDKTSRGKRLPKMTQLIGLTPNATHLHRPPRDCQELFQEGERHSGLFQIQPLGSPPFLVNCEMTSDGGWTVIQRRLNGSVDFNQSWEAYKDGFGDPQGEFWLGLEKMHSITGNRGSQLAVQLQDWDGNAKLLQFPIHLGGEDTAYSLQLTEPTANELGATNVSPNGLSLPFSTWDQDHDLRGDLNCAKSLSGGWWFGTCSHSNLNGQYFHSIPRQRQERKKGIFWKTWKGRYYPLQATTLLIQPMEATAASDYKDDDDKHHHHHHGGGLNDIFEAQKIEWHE

[2] = molecular target: T2, Human ANGPTL4(26-406)-FLAG-His6-Avi (human, UniProt Q9BY76 24-406, biotin on the C-terminal Avi tag in the biotinylated preparations (immobilised form in SET, ELISA and Octet)); experiment: as above
T2 construct: also called full-length human ANGPTL4; hANGPTL4
T2 sequence: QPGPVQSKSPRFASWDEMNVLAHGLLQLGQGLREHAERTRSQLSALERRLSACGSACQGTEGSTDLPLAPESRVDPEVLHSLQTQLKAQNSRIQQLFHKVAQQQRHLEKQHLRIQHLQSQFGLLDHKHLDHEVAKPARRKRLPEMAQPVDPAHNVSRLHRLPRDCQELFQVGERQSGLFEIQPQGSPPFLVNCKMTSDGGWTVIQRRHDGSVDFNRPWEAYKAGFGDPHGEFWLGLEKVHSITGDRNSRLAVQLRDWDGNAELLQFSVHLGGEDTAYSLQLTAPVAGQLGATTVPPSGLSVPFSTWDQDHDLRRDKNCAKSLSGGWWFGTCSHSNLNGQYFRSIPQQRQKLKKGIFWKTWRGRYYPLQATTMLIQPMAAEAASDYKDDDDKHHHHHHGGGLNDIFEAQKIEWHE

[3] = molecular target: T3, Human ANGPTL3(17-460)-FLAG-His-Avi (human, UniProt Q9Y5C1 17-460, biotin on the C-terminal Avi tag); experiment: direct ELISA on streptavidin-coated MSD plate: biotinylated antigen immobilised at 1 nM, antibody at 1 nM, detection with Sulfo-tagged goat anti-human IgG
T3 construct: also called full length human ANGPTL3; hANGPTL3
T3 sequence: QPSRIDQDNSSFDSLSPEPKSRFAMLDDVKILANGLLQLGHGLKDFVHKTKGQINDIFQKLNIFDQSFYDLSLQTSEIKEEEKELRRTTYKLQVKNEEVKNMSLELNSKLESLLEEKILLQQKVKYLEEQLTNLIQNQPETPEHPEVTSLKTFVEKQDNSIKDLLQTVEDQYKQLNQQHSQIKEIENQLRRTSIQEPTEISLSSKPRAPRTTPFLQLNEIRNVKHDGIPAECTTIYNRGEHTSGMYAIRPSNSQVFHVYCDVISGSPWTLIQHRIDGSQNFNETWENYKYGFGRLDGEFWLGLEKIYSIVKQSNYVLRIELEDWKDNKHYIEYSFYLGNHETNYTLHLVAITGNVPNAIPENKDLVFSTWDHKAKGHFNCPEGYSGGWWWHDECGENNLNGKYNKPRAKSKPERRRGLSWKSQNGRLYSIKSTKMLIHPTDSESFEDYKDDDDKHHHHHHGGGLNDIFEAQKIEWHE
Protocol: Direct ELISA assays were conducted to characterize antibody binding specificity of selected antibodies of the invention. The assay was performed as follows. A 384-well streptavidin-coated Meso Scale Discovery (MSD) plate was blocked by incubating the plate with 50 μL Blocking Buffer (PBS, pH 7.4, 5% w/v bovine serum albumin) per well at 22° C. for 1 hour with constant shaking (600 rpm). The blocked MSD plate was then washed 3 times with Wash Buffer (PBS, pH 7.4 and 0.05% v/v Tween-20) using a plate washer (BioTek). Following washing, biotinylated human ANGPTL4 proteins diluted in Assay Buffer (PBS, pH 7.4 without CaCl₂ or MgCl₂, 0.5% w/v fatty acid-free bovine serum albumin and 0.02% v/v Tween-20) were immobilized on the surface by incubation at 1 nM concentration (15 μL per well) at 22° C. for one hour: full length human ANGPTL4 (hANGPTL4), human ANGPTL4 coiled-coil domain (hANGPTL4-CCD) and full length human ANGPTL3 (hANGPTL3). The plate was then washed 3 times as described earlier. Antibody diluted to 1 nM concentration in Assay Buffer was then applied to the MSD plate […], and the plate was incubated for 1 hour at 22° C. with constant shaking (600 rpm). Bound antibodies were detected by adding 15 μL per well of a 1:500 dilution of Sulfo-tagged goat anti-human IgG. The plate was then incubated for one hour with constant shaking (600 rpm). The plate was washed 3 times, and then 15 μL/well of 1×MSD read buffer T was added and the plate was developed using a Sector Imager 6000 (Meso Scale Discovery). The data were transferred to Microsoft Excel for analysis and plotted using GraphPad Prism v6. […] An ANGPTL3-specific reference antibody was used as a positive control for the ANGPTL3 binding assay (FIG. 2).

Kd [1]: 0.517 nM
Kd [2]: 0.093 nM
binding result [3]: no binding (tested: 1 nM)
B1: MOR021798 (antibody, human IgG1, lambda, V domains shown)
VH: QVQLLESGGGLVQPGGSLRLSCAASGFTFSDYALHWVRQAPGKGLEWVSRISYMGSSTYYADSVKGRFTISRDNSKNTLYLQMNSLRAEDTAVYYCAREHYYSSPMGGVAVDNWGQGTLVTVSS
VL: DIVLTQPPSVSGAPGQRVTISCSGSSSNIGYNTVSWYQQLPGTAPKLLIYSNNIRPSGVPDRFSGSKSGTSASLAITGLQAEDEADYYCSSWDFLIKSLVFGGGTKLTVLG
notes: human IgG1

Kd [2]: 0.01 nM
B2: MOR022765 (antibody, human IgG1, lambda, V domains shown)
VH: EVQLVQSGAEVKKPGESLKISCKGSGYSFSTYWISWVRQMPGKGLEWMGIIDPSSSDTRYSPSFQGQVTISADKSISTAYLQWSSLKASDTAMYYCARVYGYVYMDVWGQGTLVTVSS
VL: SYELTQPLSVSVALGQTARITCSGDNLGKKYAYWYQQKPGQAPVLVIYDKTKRPSGIPERFSGSNSGNTATLTISRAQAGDEADYYCASYDWYSSSYVFGGGTKLTVLG
notes: human IgG1

Kd [1]: 0.005 nM
Kd [2]: 0.01 nM
binding result [3]: no binding (tested: 1 nM)
B3: MOR021792 (antibody, human IgG1, lambda, V domains shown)
VH: QVQLLESGGGLVQPGGSLRLSCAASGFTFSDYAMDWVRQAPGKGLEWVSKISYDGSYTYYADSVKGRFTISRDNSKNTLYLQMNSLRAEDTAVYYCARPSMSYYIIPAGFDVWGQGTLVTVSS
VL: DIELTQPPSVSVSPGQTASITCSGDALGVKRASWYQQKPGQAPVLVIYKDNNRPSGIPERFSGSNSGNTATLTISGTQAEDEADYYCSVRTWSMNLYVFGGGTKLTVLG
